Substrate in the data set: N[C@@H](CC(=O)O)C(=O)O
Briefly: GLOX/HRP-coupled enzyme kinetics. The class given is biochemical, Homo sapiens. To be noted: PLP.

The text below walks through data of paper PMC6487875.

B1: GOT1 (glutamate oxaloacetate transaminase 1, aspartate aminotransferase 1) (Homo sapiens) (protein)
chain: APPSVFAEVPQAQPVLVFKLTADFREDPDPRKVNLGVGAYRTDDCHPWVLPVVKKVEQKIANDNSLNHEYLPILGLAEFRSCASRLALGDDSPALKEKRVGGVQSLGGTGALRIGADFLARWYNGTNNKNTPVYVSSPTWENHNAVFSAAGFKDIRSYRYWDAEKRGLDLQGFLNDLENAPEFSIVVLHACAHNPTGIDPTPEQWKQIASVMKHRFLFPFFDSAYQGFASGNLERDAWAIRYFVSEGFEFFCAQSFSKNFGLYNERVGNLTVVGKEPESILQVLSQMEKIVRITWSNPPAQGARIVASTLSNPELFEEWTGNVKTMADRILTMRSELRARLEALKTPGTWNHITDQIGMFSFTGLNPKQVEYLVNEKHIYLLPSGRINVSGLTTKNLDYVATSIHEAVTKIQ
Consider B1, for which the Km was 4 mM.
